Reference: patent US9670288B2, “Osteoprotegerin in neuroprotection” (Massachusetts Eye and Ear Infirmary, priority 2011, dated 2017)
Entries after “also recorded” stand apart in the source; their conditions may differ.

Assays:
Type in all cases: cell-based, mice
Schwann cells = assay: TRAIL induced cell death (cleaved caspase 3) in cultured Schwann cells; details: for TRAIL induced cleaved caspase 3 (cell death): opg −/− Schwann cells, pretreatment, TRAIL 100 ng/ml, OPG 100 ng/l, PD98059 20 nM, zoledronate 10 μM
ERK kinase [1] = assay: H2O2 induced ERK kinase activation in cultured Schwann cells / SGCs (immunoblot, p-ERK); details: opg −/− Schwann cells; pre-treatment 3 hours and co-treatment; OPG 100 ng/L, PD 98059 20 nM, zoledronate 10 μM; 500 μM H2O2
[2] = system: spiral ganglion cells (SGCs) / Schwann cells; assay: H2O2 induced oxidative cell death of cultured spiral ganglion cells (nuclear condensation, Hoechst 33342); details: for H2O2 induced oxidative cell death: opg −/− SGCs/Schwann cells, pretreatment followed by co-treatment, OPG 100 ng/L, PD 98059 20 nM, zoledronate 10 μM, 500 μM H2O2
ERK kinase [3] = assay: TRAIL induced ERK phosphorylation in cultured Schwann cells (immunoblot); details: for TRAIL induced ERK phosphorylation / ERK activation: opg −/− Schwann cells, pretreatment, TRAIL 100 ng/ml, OPG 100 ng/l, PD98059 20 nM, zoledronate 10 μM
opg −/− spheres [4] = assay: Proliferation of floating spiral ganglion spheres (BrdU staining); details: third generation opg −/− spheres, Rankl 100 ng/ml, OPG 100 ng/ml, zoledronate 1 μM, 3 days, passaged
Method: For each experiment, spiral ganglia of four to six 1-3 day old WT or opg −/− mice were dissected in HBSS. The SGCs (neurons and glia) were dissociated using trypsin (0.25%) for 13 min in PBS at 37° C. The enzymatic digestion was stopped by adding 10% FBS in DMEM-high glucose medium. The tissue was washed twice and gently triturated. The cell suspension was passed through a 70 μm cell strainer (BD Labware). Single cells were cultured in DMEM-high glucose and F12 (mixed 1:1) supplemented with N2 and B27 (Invitrogen), EGF (20 ng/mL; Chemicon), bFGF (10 ng/mL; Chemicon), IGF-1 (50 ng/mL; Chemicon), and heparan sulfate (50 ng/mL; Sigma). Newly formed spheres were cultured in ultra-low-cluster plates (Costar) for 4 days and were termed first generation spheres. Spheres were subsequently passaged every 4 days until the third generation, when 5-10 spheres were collected and dissociated (Oshima K, Grimm C M, Corrales C E, Senn P, Martinez Monedero R, Géléoc GS, Edge A, Holt J R, Heller S. 2007. J Assoc Res Otolaryngol. 2007; 8:18-31). Spheres were passaged at a clonal level for 3 more times. Before each passage, the sphere morphology was assessed and the spheres were counted using the Metamorph counting software. At the third generation, spiral ganglion spheres from WT and opg −/− mice were separated into 4 groups and treated with Rankl (100 ng/ml), OPG (100 ng/ml) or zoledronate (1 μM). […]

opg −/− spheres [5] = assay: Apoptosis in floating spiral ganglion spheres (cleaved caspase 3 staining); details: third generation opg −/− spheres, Rankl 100 ng/ml, OPG 100 ng/ml, zoledronate 1 μM, 3 days, passaged
Method: For each experiment, spiral ganglia of four to six 1-3 day old WT or opg −/− mice were dissected in HBSS. The SGCs (neurons and glia) were dissociated using trypsin (0.25%) for 13 min in PBS at 37° C. The enzymatic digestion was stopped by adding 10% FBS in DMEM-high glucose medium. The tissue was washed twice and gently triturated. The cell suspension was passed through a 70 μm cell strainer (BD Labware). Single cells were cultured in DMEM-high glucose and F12 (mixed 1:1) supplemented with N2 and B27 (Invitrogen), EGF (20 ng/mL; Chemicon), bFGF (10 ng/mL; Chemicon), IGF-1 (50 ng/mL; Chemicon), and heparan sulfate (50 ng/mL; Sigma). Newly formed spheres were cultured in ultra-low-cluster plates (Costar) for 4 days and were termed first generation spheres. Spheres were subsequently passaged every 4 days until the third generation, when 5-10 spheres were collected and dissociated (Oshima K, Grimm C M, Corrales C E, Senn P, Martinez Monedero R, Géléoc GS, Edge A, Holt J R, Heller S. 2007. J Assoc Res Otolaryngol. 2007; 8:18-31). Spheres were passaged at a clonal level for 3 more times. Before each passage, the sphere morphology was assessed and the spheres were counted using the Metamorph counting software. At the third generation, spiral ganglion spheres from WT and opg −/− mice were separated into 4 groups and treated with Rankl (100 ng/ml), OPG (100 ng/ml) or zoledronate (1 μM). The control group was untreated. After 3 days of treatment, the spheres were passaged and treated again for 3 days. Twelve hours before plating, proliferating cells in the spheres were labeled with BrdU (3 μg/ml). After 12 hours, the spheres were plated for 1 hour on poly-L-lysine (0.01%, Cultrex)-coated glass coverslips (Marienfeld GmbH, Germany), fixed in 4% paraformaldehyde for 10 min, treated with 1N HCl for antigen retrieval for BrdU staining, incubated for 1 hour in blocking solution (0.3% Triton, 15% goat serum in 1×PBS), and incubated overnight with either anti-cleaved caspase3 antibody to assess cell death, or anti-BrdU antibody to assess cell proliferation. After 3 washing steps with 1×PBS, the spheres were incubated in secondary antibody for 2 hours (568 Alexa Fluor anti rat or anti mouse). Nuclei were stained with DAPI. Staining was visualized by epifluorescence microscopy (Axioskop 2 Mot Axiocam, Zeiss). Counting was done with the Metamorph software.

p38, JNK or NF-κB p65 = assay: p38, JNK and NF-κB p65 activity after TRAIL in cultured Schwann cells (immunoblot); details: opg −/− Schwann cells treated with TRAIL

Molecule | TRAIL induced cleaved caspase 3 (cell death) (Schwann cells) | H2O2 induced ERK kinase activation (ERK kinase [1]) | H2O2 induced oxidative cell death [2] | TRAIL induced ERK phosphorylation / ERK activation (ERK kinase [3]) | proliferation of opg−/− spheres (number of BrdU positive cells) (opg −/− spheres [4]) | apoptosis in opg−/− spheres (number of cleaved caspase 3 positive cells) (opg −/− spheres [5]) | cell death without H2O2 treatment ([2]; opg −/− SGCs, no H2O2) | p38, JNK or NF-κB p65 activity after TRAIL (p38, JNK or NF-κB p65) | cleavage of caspase 3 / cell death caused by TRAIL itself (Schwann cells; Schwann cells treated with recombinant TRAIL (100 ng/ml)) | ERK phosphorylation caused by TRAIL itself (ERK kinase [3]; cells treated with TRAIL (100 ng/ml)) | apoptosis in opg−/− spheres (number of cleaved caspase 3 positive cells) (opg −/− spheres [5]; listed as Rankl)
COc1cccc(-c2cc(=O)c3ccccc3o2)c1N [PD 98059, reference compound] | suppressed | suppressed | rescued | suppressed | – | – | – | – | – | – | –
O=P(O)(O)C(O)(Cn1ccnc1)P(=O)(O)O [zoledronate, reference compound] | suppressed | suppressed | rescued | suppressed | significantly enhanced; also recorded: increased | reduced; also recorded: decreased | – | – | – | – | –
OPG: Osteoprotegerin, cytokine receptor of the TNF receptor superfamily; recombinant protein from R & D Systems (protein, homo sapiens OPG, Osteoprotegerin, cytokine receptor of the TNF receptor superfamily; recombinant protein from R & D Systems) MNNLLCCALVFLDISIKWTTQETFPPKYLHYDEETSHQLLCDKCPPGTYLKQHCTAKWKTVCAPCPDHYYTDSWHTSDECLYCSPVCKELQYVKQECNRTHNRVCECKEGRYLEIEFCLKHRSCPPGFGVVQAGTPERNTVCKRCPDGFFSNETSSKAPCRKHTNCSVFGLLLTQKGNATHDNICSGNSESTQKCGIDVTLCEEAFFRFAVPTKFTPNWLSVLVDNLPGTKVNAESVERIKRQHSSQEQTFQLLKLWKHQNKDQDIVKKIIQDIDLCENSVQRHIGHANLTFEQLRSLMESLPGKKVGAEDIEKTIKACKPSDQILKLLSLWRIKNGDQDTLKGLMHALKHSKTYHFPKTVTQSLKKTIRFLHSFTMYKLYQKLFLEMIGNQVQSVKISCL | suppressed | suppressed | rescued | suppressed | significantly enhanced; also recorded: increased | reduced; also recorded: decreased | did not significantly affect | – | – | – | –
TRAIL: TNF-related apoptosis-inducing ligand, recombinant (protein, UniProt P50591 1-281, looked up) Tumor necrosis factor ligand …: MAMMEVQGGPSLGQTCVLIVIFTVLLQSLCVAVTYVYFTNELKQMQDKYSKSGIACFLKEDDSYWDPNDEESMNSPCWQVKWQLRQLVRKMILRTSEETISTVQEKQQNISPLVRERGPQRVAAHITGTRGRSNTLSSPNSKNEKALGRKINSWESSRSGHSFLSNLHLRNGELVIHEKGFYYIYSQTYFRFQEEIKENTKNDKQMVQYIYKYTSYPDPILLMKSARNSCWSKDAEYGLYSIYQGGIFELKENDRIFVSVTNEHLIDMDHEASFFGAFLVG | – | – | – | – | – | – | – | did not affect | increased; also recorded: induced cell death | activated | –
RANKL: RANK ligand, from R & D Systems (protein, UniProt O14788 140-317, looked up) Tumor necrosis factor ligand …: IRAEKAMVDGSWLDLAKRSKLEAQPFAHLTINATDIPSGSHKVSLSSWYHDRGWAKISNMTFSNGKLIVNQDGFYYLYANICFRHHETSGDLATEYLQLMVYVTKTSIKIPSSHTLMKGGSTKYWSGNSEFHFYSINVGGFFKLRSGEEISIEVSNPSLLDPDQDATYFGAFKVRDID | – | – | – | – | – | significantly increased | – | – | – | – | increased
